Each block holds one binder with its values, some of them ahead of it.
Legend:
Conditions in all cases: both partners purified
M1-linked tetraUb = target: T1, M1-linked tetraUb (UniProt P0CG48 1-304); assay: ITC; ubiquitin species titrated into the SPRTN fragment (arrows in Supplementary Figures 4A, 4D, 6A); 25°C; 50 mM HEPES pH 7.4, 50 mM NaCl, 0.5 mM TCEP-HCl; one-site binding model; at least 3 repeats, undetectable pairs 1 repeat
T1 construct: four ubiquitin units head to tail on one chain (M1-linked, linear); plasmid pET-24-tetraUb; also called M1-Ub4; source: E. coli BL21(DE3), purified (HisTrap, SEC)

M1-linked hexaUb = target: T2, M1-linked hexaUb (UniProt P0CG48 1-456); assay: as above
T2 construct: six ubiquitin units head to tail on one chain (M1-linked, linear); plasmid pET-24-hexaUb; also called M1-Ub6; source: E. coli BL21(DE3), purified (HisTrap, SEC)

M1-linked diUb = target: T3, M1-linked diUb (UniProt P0CG48 1-152); assay: as above
T3 construct: two ubiquitin units head to tail on one chain (M1-linked, linear); plasmid pET-47b-N-His-Ub2; The His tag was removed by HRV 3C only for the 15N-labelled M1-Ub2 of the NMR work, as far as the methods tell; also called M1-Ub2; M1-Ub2 WT; source: E. coli BL21(DE3), purified (HisTrap, SEC)

[1] = target: T4, M1-linked diUb (His-tagged M1-Ub2) (UniProt P0CG48 1-76; P0CG48 1-76); assay: ITC; MicroCal PEAQ-ITC, 25°C, 50 mM HEPES pH 7.4, 50 mM NaCl, 0.5 mM TCEP–HCl; one-site binding model; who was in the syringe is not told
T4 construct: ubiquitin unit 1 of 2 (distal), joined head to tail (M1-linked); ubiquitin unit 2 of 2 (proximal); its I44 is printed as position 120 of the chain; also called linear diUb; source: E. coli BL21(DE3), purified (HisTrap, SEC)

[2] = target: T5, M1-linked tetraUb (His-tagged M1-Ub4) (UniProt P0CG48 1-76; P0CG48 1-76; P0CG48 1-76; P0CG48 1-76); assay: as above
T5 construct: ubiquitin unit 1 of 4, joined head to tail (M1-linked); ubiquitin unit 2 of 4; ubiquitin unit 3 of 4; ubiquitin unit 4 of 4; source: E. coli BL21(DE3), purified (HisTrap, SEC)

[3] = target: T6, M1-linked hexaUb (His-tagged M1-Ub6) (UniProt P0CG48 1-76; P0CG48 1-76; P0CG48 1-76; P0CG48 1-76; P0CG48 1-76; P0CG48 1-76); assay: as above
T6 construct: ubiquitin unit 1 of 6, joined head to tail (M1-linked); ubiquitin unit 2 of 6; ubiquitin unit 3 of 6; ubiquitin unit 4 of 6; ubiquitin unit 5 of 6; ubiquitin unit 6 of 6; source: E. coli BL21(DE3), purified (HisTrap, SEC)

[4] = target: T7, Proliferating Cell Nuclear Antigen (UniProt P12004 1-261); assay: SPR; SPRTN PIP-UBZ amine-coupled to a CM5 chip (~1000 RU); analytes monoUb, PCNA, monoUb-PCNA; 50 mM HEPES pH 7.4, 50 mM NaCl, 0.5 mM TCEP-HCl; steady-state affinity model
T7 construct: PCNA; plasmid pET16b-PCNA (Addgene #134898); also called PCNA; source: E. coli BL21(DE3), purified (Q Sepharose, heparin, SEC)
T7 sequence (P12004 whole entry): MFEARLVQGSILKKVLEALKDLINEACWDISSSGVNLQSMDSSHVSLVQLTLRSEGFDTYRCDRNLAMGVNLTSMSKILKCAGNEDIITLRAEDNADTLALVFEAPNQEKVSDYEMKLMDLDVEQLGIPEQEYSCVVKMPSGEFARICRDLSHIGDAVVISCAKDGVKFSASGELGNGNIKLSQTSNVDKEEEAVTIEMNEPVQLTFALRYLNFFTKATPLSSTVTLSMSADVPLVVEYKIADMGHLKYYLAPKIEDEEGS

Kd (M1-linked tetraUb): 69.7 ± 6.9 µM | Kd (M1-linked hexaUb): 34.8 ± 3.8 µM | Kd (M1-linked diUb): 132 ± 3.9 µM
B1: SPRTN core region (26-240 aa), E112Q (domain or fragment, human, UniProt Q9H040 26-240, looked up)
chain: QESLSLVDASWELVDPTPDLQALFVQFNDQFFWGQLEAVEVKWSVRMTLCAGICSYEGKGGMCSIRLSEPLLKLRPRKDLVETLLHQMIHAYLFVTNNDKDREGHGPEFCKHMHRINSLTGANITVYHTFHDEVDEYRRHWWRCNGPCQHRPPYYGYVKRATNREPSAHDYWWAEHQKTCGGTYIKIKEPENYSKKGKGKAKLGKEPVLAAENKD
notes: SPRTN, human, residues 26-240 (MPD, ZBD and BR); plasmid pNIC28-SPRTN core (26-240), E112Q; also called SPRTN core (E112Q); SPRTN core E112Q; source: E. coli BL21(DE3), purified (Ni-NTA, TEV cleavage, SEC)

Kd [1]: ~132 µM | Kd [2]: ~70 µM | Kd [3]: ~35 µM
B2: SPRTN core region (E112Q), enzymatically inactive (domain or fragment, human, UniProt Q9H040 26-240, looked up)
chain: QESLSLVDASWELVDPTPDLQALFVQFNDQFFWGQLEAVEVKWSVRMTLCAGICSYEGKGGMCSIRLSEPLLKLRPRKDLVETLLHQMIHAYLFVTNNDKDREGHGPEFCKHMHRINSLTGANITVYHTFHDEVDEYRRHWWRCNGPCQHRPPYYGYVKRATNREPSAHDYWWAEHQKTCGGTYIKIKEPENYSKKGKGKAKLGKEPVLAAENKD
notes: SPRTN, human, residues 26-240 (plasmid pNIC28-SPRTN (26-240)), variant E112Q; also called SPRTN core (E112Q); ΔMIU, ΔC: 26–240 aa; source: E. coli BL21(DE3), purified (Ni-NTA, TEV cleavage, HisTrap flow-through, SEC)

Kd [4]: 12.8 ± 2 µM
B3: SPRTN PIP-UBZ (320-489) (domain or fragment, human, UniProt Q9H040 320-489, looked up)
chain: VSNSHQNVLSNYFPRVSFANQKAFRGVNGSPRISVTVGNIPKNSVSSSSQRRVSSSKISLRNSSKVTESASVMPSQDVSGSEDTFPNKRPRLEDKTVFDNFFIKKEQIKSSGNDPKYSTTTAQNSSSSSSQSKMVNCPVCQNEVLESQINEHLDWCLEGDSIKVKSEESL
notes: SPRTN, human, PIP box to UBZ, residues 320-489; plasmid pCold I-SPRTN-PIP-UBZ (320-489); Its purification is not described; amine-coupled to a CM5 chip for SPR

Source: publication PMC12277127 (Nucleic Acids Research, 2024)
